Test results taken from the supplement of paper PMC12042874.
± gives the uncertainty stated by the source.

Test: amyloid nucleation score (Sup35N fusion, yeast selection) (log enrichment); library NNK1; higher = more nucleation; inactive = no reads after selection
How it was run: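 Output and input plasmid inserts were sequenced by Illumina after psi-negative yeast carrying Sup35N fused to peptides of 20 random codons had been induced 24 hours with 100 μM copper sulfate and grown 7 days at 30°C on medium lacking adenine and uracil. The nucleation score is the DiMSum log enrichment of output over input reads, centred on the mode score of non-aggregating sequences. Sequences with under 100 input reads were excluded.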

| Substance | amyloid nucleation score |
| --- | --- |
| ARATQAEYRIERRGRFCILS | 0.21 ± 0.38 |
| ARGPLKSGINQNVCSCGTSI | 0.118 ± 1.5 |
| ARHKSENWNYAVDLLSLILS | 1.59 ± 0.41 |
| ARHPECQSCSWRYCLYVVHC | inactive |
| ARMSNMNPLFWLP | -0.04 ± 0.35 |
| ARPFRRCYSKADAWGVQQVG | 0.556 ± 0.79 |
| ARRGHKK | 1.32 ± 0.64 |
| ARVSGILLVMLCRYHFGLRE | 0.102 ± 0.69 |
| ARWMVWTLESHLPDNFTMVN | -1.21 ± 1.1 |
| ARYHYWGGERASSLNKVSQW | 0.699 ± 1 |
| ASAFVRVMNV | 0.527 ± 0.5 |
| ASAVIWGERAKLRKYLIPTR | 0.94 ± 0.7 |
| ASFSNCWG | 0.486 ± 0.32 |
| ASHLIYCFEARASLILL | 0.686 ± 1.1 |
| ASLSPNTASYNLELPSIMHM | 0.283 ± 0.71 |
| ASNTANIPYGII | 0.489 ± 0.32 |
| ASSIDYQRTS | 0.322 ± 0.71 |
| ASYRKCLLCIRLNC | -0.753 ± 0.86 |
| ATCLLAFMNFVSILERRSES | 1.86 ± 0.21 |
| ATLGDSEEYRLAFGLPLYCR | inactive |
| ATLVTV | 0.759 ± 0.67 |
| ATRRSCNLCLNLEFT | inactive |
| ATVDGRLIRDVSISCMGYDV | -1.12 ± 2.4 |
| ATWTAWRHVAHFWPWAHAKS | 0.936 ± 0.56 |
| ATYYFICMLIVQVHFCLFTM | -0.992 ± 0.5 |

| Substance | amyloid nucleation score |
| --- | --- |
| AVITLQVHLLPEYFQAACIT | 0.154 ± 0.38 |
| AVLHLSDCERNYFTFTVNCG | 6.207 ± 0.049 |
| AVLSGRHWHTLYNSIALSEL | 0.869 ± 0.45 |
| AVNSGRWLSVLRRRMESFLV | 0.203 ± 0.42 |
| AVPRAFIQKCSSITLSVYPM | -0.504 ± 0.99 |
| AVRVLPSLNVGAGMRQVVFT | 0.693 ± 0.5 |
| AVSMWLPNDLAMIRSYIGYY | -0.475 ± 0.52 |
| AVWLVQSHPN | 0.499 ± 0.58 |
| AVWSRRTCWGLRKQSGVVLT | 0.036 ± 0.32 |
| AWDFWTWVSSGVWWYDASVR | -0.398 ± 0.91 |
| AWIPFVNTKTEWRVMDVNFD | 0.399 ± 0.62 |
| AWKGWFLMGYCGDRVMWDWR | -0.131 ± 0.73 |
| AWLSGVNVVSKSQGCFLWYG | 0.551 ± 0.56 |
| AWRSFIGYRMRVWIGYRGCY | 0.186 ± 0.95 |
| AWSRLSVNPVVEENVMAIAL | 0.909 ± 0.69 |
| AWVRLYWAGR | 0.216 ± 0.68 |
| AWWRCCGTLRTVRSAAKGLM | -0.292 ± 1.1 |
| AYAEIYERSEPGKDRHYLFM | -0.313 ± 0.74 |
| AYAKLYKLSVLEPGRRVRMQ | 1.21 ± 0.57 |
| AYCRTNTNLRVLRIWNK | -0.611 ± 0.53 |
| AYLYQSSYLVRC | 0.368 ± 0.36 |
| AYPWRITFDAWISYV | 0.294 ± 0.76 |
| AYSVRICLDFGKNG | inactive |
| AYTEMNLRIVERYSMNTIRP | 2.14 ± 0.26 |
| CCFSSMNFIS | 4.04 ± 0.082 |

| Substance | amyloid nucleation score |
| --- | --- |
| CCGCWYIITKPYSNKVRKCA | 0.265 ± 0.73 |
| CCGMSGLSIGDGKNFMSGWV | 1.82 ± 0.45 |
| CCPRYMSIDSIDDRFYDKSF | inactive |
| CCPWEEHGICNEWRHRGSGT | -0.199 ± 0.46 |
| CCQRYCCTSGLANNWNRVYH | 0.812 ± 0.75 |
| CCRARDLIYLNITHAFFSIL | -0.289 ± 0.47 |
| CCRVISIWG | 0.115 ± 0.54 |
| CCSTSADIHSARNDVWSYSE | -0.271 ± 0.88 |
| CCTNM | 0.332 ± 0.22 |
| CCYYTSVILVFDGRFDEMPY | 4.23 ± 0.07 |
| CDCTSRGK | -0.407 ± 1.5 |
| CDFRIFRLSVPGTYYVCDWL | -0.018 ± 0.6 |
| CDGRW | 0.186 ± 0.3 |
| CDNGPLLIVGVRHRTRACVT | 0.861 ± 0.38 |
| CDSKLHISSSC | 0.313 ± 0.84 |
| CDSTVMRGLYCGRVVYSLFV | 0.721 ± 0.47 |
| CEAMVLKGCAEAVQYRATDS | -0.23 ± 1.1 |
| CEEKCSHNVGTY | 0.458 ± 0.55 |
| CEFLIFTFRVSGEVLLQSRA | 0.265 ± 0.92 |
| CEGMVIMVGRVLRTSYLYNL | 0.001 ± 0.61 |
| CETVG | inactive |
| CEWVWRGSVCSIWLLVLLPV | 0.09 ± 0.41 |
| CFEDRYSLRCGM | -0.397 ± 0.34 |
| CFEFDPFMNMVKSCWCCQVA | -0.281 ± 0.93 |
| CFEYFY | -0.664 ± 0.32 |

| Substance | amyloid nucleation score |
| --- | --- |
| CFFYDCGWTCPLKNIGSYTF | 0.07 ± 0.51 |
| CFLMNLVAYFVFLRTLS | 1.49 ± 0.56 |
| CFMVHNTVVRVGKE | 0.177 ± 0.7 |
| CFPPSNCYLLYKLCVLLRIN | -0.134 ± 0.45 |
| CFQLRVGMTDDALWRLMC | -0.452 ± 1.9 |
| CFQVYICVVDSDYRNFLWDA | 3.73 ± 0.077 |
| CFSGPPMTESVYNPTSGNEH | 0.152 ± 0.72 |
| CFSHVWVDLIDFYVRFVLFR | -0.209 ± 0.69 |
| CFSQVCDKFMMEMMFSCFKV | 0.451 ± 0.24 |
| CFTICFVGYCSRVKGWLMQR | -0.617 ± 0.71 |
| CFTYSARH | 3.67 ± 0.11 |
| CGAMGVVL | 0.112 ± 0.26 |
| CGCCARWNYIIMMGWGGCVL | 0.096 ± 0.69 |
| CGEIENRMVTEAVTALLLYD | 0.034 ± 0.41 |
| CGRKGEHIFYTTDNEYLNYV | 0.211 ± 0.36 |
| CGVNLKNLLTMLPDIGLHAV | 0.227 ± 0.25 |
| CGWRSLVVFSFDLDAS | 0.876 ± 0.47 |
| CHIGSRPLASMKAFPHCDVA | 1 ± 0.57 |
| CHNHRMYH | 0.072 ± 0.9 |
| CHNVAVPRVIVIGFDSGILY | 0.341 ± 0.7 |
| CHQAEPGIGMRSCTLVGEGV | 1.36 ± 0.61 |
| CHQFV | 0.833 ± 0.5 |
| CHVQMSFNGLRYNFHTIFFI | 1.2 ± 0.74 |
| CICLDTSGSVLYSLCTDCGL | 0.871 ± 0.69 |
| CIGRCMWI | 1.81 ± 0.61 |

| Substance | amyloid nucleation score |
| --- | --- |
| CIIVVSTRAADPDLCSYIML | 0.234 ± 0.75 |
| CILLVFEDMWVSIV | -0.53 ± 0.36 |
| CILRRMDADFIFIVCVDCFG | -0.055 ± 0.4 |
| CIRGGSIWLMGHNVREVC | 0.401 ± 0.49 |
| CIRVSIVID | 0.215 ± 0.38 |
| CIVVMGSVAYHGRFYFVDVE | 1.43 ± 0.76 |
| CIVVTLYSIMFRDGS | inactive |
| CKMNYGLVLAGSLGVGSGQD | 0.317 ± 0.42 |
| CKRLS | -0.216 ± 1.1 |
| CKRTSDPCHIVECFLPFHVL | 0.315 ± 0.85 |
| CKVTSGDIQTYGVLGPQRPA | -1.05 ± 1.1 |
| CLFDHKFMRIALHL | inactive |
| CLFKGLCSGWLREYALPYFC | -1.05 ± 0.97 |
| CLINFP | 0.722 ± 0.74 |
| CLLTNTKFWYISMSHDLGCL | 0.559 ± 0.34 |
| CLMGTHILGSRVVGTPSMVR | 0.47 ± 1.2 |
| CLMIKMHSILIDVIYLHTRV | -0.363 ± 0.77 |
| CLRPLEPDVYVTRILRFCDS | -0.304 ± 0.39 |
| CMKYMLCARKYFKSYSWLLS | 1.04 ± 0.73 |
| CMLDGALLLILVVFTIPCLN | 0.909 ± 0.6 |
| CMMMYVCLLSSGHVGMSLGV | 0.18 ± 0.43 |
| CMSLFRYENVQYLFTRIHSI | 1.43 ± 0.34 |
| CMWWSCGSNIVYVALLMWCH | -0.191 ± 0.4 |
| CNCAKSNVRCLFLFFDGQTR | 0.775 ± 0.92 |
| CNCMVLSPLDVMEPIAMGFQ | 0.455 ± 1.4 |

| Substance | amyloid nucleation score |
| --- | --- |
| CNISAITRFTEIWSRVTSVF | 1.59 ± 0.8 |
| CNMKNDLTRGNSRFCNLCCN | 0.85 ± 0.53 |
| CNTLDLMAFNSLYLSPVSTC | inactive |
| CNWATLTMWLLSCIRPTPRS | -1.1 ± 2.4 |
| CNWVIRNPYVGPIRSNVHGS | 0.124 ± 0.58 |
| CPASKFDQGP | -0.038 ± 0.81 |
| CPLSNGSVRVNDGATTLAWL | -0.956 ± 2.1 |
| CPRPYDRSALSRKLY | 0.713 ± 0.32 |
| CPSEYQIAGMIASSYMHLGE | 0.872 ± 0.33 |
| CPTEGGLVWSYWSLS | 1.09 ± 0.83 |
| CPVKGFLSVTACDYL | -0.384 ± 0.57 |
| CQFDVGAQLAYYGR | inactive |
| CQQVLWS | 0.039 ± 0.79 |
| CRASFACERDNIS | 0.547 ± 0.31 |
| CRCAPYSNGKTGIHARLFNT | 0.794 ± 1.1 |
| CRLFVFPF | -0.336 ± 1.4 |
| CRMTGSFKSTCRSKGLASCS | 0.002 ± 0.3 |
| CRNLFMWDIRRGKYITARKK | -0.779 ± 1.6 |
| CRNWKWSRRFYYGERNGGRL | 0.416 ± 0.81 |
| CRRRMFLQVPRIYFEMRSYA | 0.492 ± 0.91 |
| CRSTYDQLPEYLST | -0.117 ± 0.56 |
| CRTCGFPLLYSAELVLEVC | 0.018 ± 0.45 |
| CRWSVLGREFSSQFVCWEDW | -0.59 ± 0.54 |
| CRYPWRH | -0.042 ± 0.6 |
| CSAASVCPGD | -0.116 ± 1.5 |

| Substance | amyloid nucleation score |
| --- | --- |
| CSCEVNMRLIGCKK | -0.253 ± 1.2 |
| CSCYRFLGDSKWIRHHINRT | -0.679 ± 0.85 |
| CSFFTKDSDTP | 0.327 ± 0.3 |
| CSGNLVMVLSAACAKVGYLV | -1.48 ± 1.7 |
| CSGWMNGLSRVKPAHL | inactive |
| CSHGNYHITCCPHAFFMTAI | 4.91 ± 0.098 |
| CSKSS | -0.909 ± 2.7 |
| CSLSETFPKVYFMWTQRSYV | -1.36 ± 2.4 |
| CSNLM | -0.675 ± 0.66 |
| CSNVGVCGMSIH | 5.01 ± 0.052 |
| CSSALGIMKWTRIYVCRGRG | 1.6 ± 0.24 |
| CSVFWCFVLGLVNRNLLKRS | -0.928 ± 0.4 |
| CSWAASY | -0.689 ± 1.9 |
| CSWLSFVEEVGLGSERGVRG | -0.629 ± 1 |
| CSYRWVELLCSC | 3.93 ± 0.11 |
| CTGFLRVWPLGEMYEDRR | 0.12 ± 0.58 |
| CTMSTSMPHRAVRRELSSIE | 0.052 ± 0.3 |
| CTPFMRTSLSFICSDSSVML | 0.771 ± 0.82 |
| CTSVRVLGSNQCSYGVSKCR | -0.39 ± 0.39 |
| CTVDMEGFGFSRIVVDRGRS | -0.118 ± 0.6 |
| CTVMDRLLTQEPTNRRWSRY | 0.06 ± 0.84 |
